Data: patent publication US20250152746A1, “BASE EDITING OF ANGPTL3 AND METHODS OF USING SAME FOR TREATMENT OF DISEASE” (Verve Therapeutics, Inc., priority 2020, published 2025)
In the oligonucleotide strings, read from the 5' end, every base follows the letter of its sugar. An asterisk marks phosphorothioate; unmarked linkages are phosphodiester. Other units and linkages are bracketed, terminal groups are in braces. A string of capitals states the bases alone. m = 2'-O-methyl; r = 2'-OH (RNA)

Tests used:
PCSK9 gene [1] = experiment: PCSK9 gRNA/SpCas9 editing in primary human hepatocytes (Tables 2, 4); format: cell-based; details: SpCas9 mRNA MS002 1:1 by weight; for Human Primary Hepatocyte Editing % 100: 100 ng/RNA/mL; for Human Primary Hepatocyte Editing % 500: 500 ng/RNA/mL; for Human Primary Hepatocyte Editing % 2500: 2500 ng/RNA/mL
How it was run: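 Primary human hepatocytes co-transfected with PCSK9 gRNA plus SpCas9 mRNA (1:1 by weight) at 2500, 500 or 100 ng RNA/mL, or 2500–250 ng/mL for tracr-modified guides. Editing at the target site read by amplicon next-generation sequencing of extracted genomic DNA.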

PCSK9 gene [2] = experiment: PCSK9 gRNA/SpCas9 editing in primary cynomolgus hepatocytes (Tables 2, 22); format: cell-based, cynomolgus monkey; details: SpCas9 mRNA MS002 1:1 by weight; for Cyno Primary Hepatocyte Editing % 100: 100 ng/RNA/mL; for Cyno Primary Hepatocyte Editing % 500: 500 ng/RNA/mL; for Cyno Primary Hepatocyte Editing % 2500: 2500 ng/RNA/mL

| Molecule | Human Primary Hepatocyte Editing % 100 (PCSK9 gene [1]) | Human Primary Hepatocyte Editing % 500 (PCSK9 gene [1]) | Human Primary Hepatocyte Editing % 2500 (PCSK9 gene [1]) | Cyno Primary Hepatocyte Editing % 100 (PCSK9 gene [2]) | Cyno Primary Hepatocyte Editing % 500 (PCSK9 gene [2]) | Cyno Primary Hepatocyte Editing % 2500 (PCSK9 gene [2]) |
| --- | --- | --- | --- | --- | --- | --- |
| GA222: PCSK9 gRNA; protospacer TGGCAGGGGTGGTCAGCGGC (SEQ ID NO: 216) (nucleic acid, sugars from the 5' end m3 r94 m3, linkages s3 o93 s3 (s phosphorothioate, o phosphodiester), T or U not given here) guide: UGGCAGGGGUGGUCAGCGGCGUUUUAGAGCUAGAAAUAGCAAGUUAAAAUAAGGCUAGUCCGUUAUCAACUUGAAAAAGUGGCACCGAGUCGGUGCUUUU | 0.5% | 0.66% | 2.04% | 0.88% | 3.32% | 16.7% |
| GA214: PCSK9 gRNA; protospacer CCTTGGCCACGCCGGCATCC (SEQ ID NO: 208) (nucleic acid, sugars from the 5' end m3 r94 m3, linkages s3 o93 s3 (s phosphorothioate, o phosphodiester), T or U not given here) guide: CCUUGGCCACGCCGGCAUCCGUUUUAGAGCUAGAAAUAGCAAGUUAAAAUAAGGCUAGUCCGUUAUCAACUUGAAAAAGUGGCACCGAGUCGGUGCUUUU | 1.94% | 6.28% | 22.92% | 3.06% | 14.84% | 50.35% |
| GA216: PCSK9 gRNA; protospacer CCGGGATGCCGGCGTGGCCA (SEQ ID NO: 210) (nucleic acid, sugars from the 5' end m3 r94 m3, linkages s3 o93 s3 (s phosphorothioate, o phosphodiester), T or U not given here) guide: CCGGGAUGCCGGCGUGGCCAGUUUUAGAGCUAGAAAUAGCAAGUUAAAAUAAGGCUAGUCCGUUAUCAACUUGAAAAAGUGGCACCGAGUCGGUGCUUUU | 0.95% | 3.7% | 14.65% | 1.77% | 4.97% | 37.79% |
| GA215: PCSK9 gRNA; protospacer CAGCGGCCGGGATGCCGGCG (SEQ ID NO: 209) (nucleic acid, sugars from the 5' end m3 r94 m3, linkages s3 o93 s3 (s phosphorothioate, o phosphodiester), T or U not given here) guide: CAGCGGCCGGGAUGCCGGCGGUUUUAGAGCUAGAAAUAGCAAGUUAAAAUAAGGCUAGUCCGUUAUCAACUUGAAAAAGUGGCACCGAGUCGGUGCUUUU | 0.13% | 1.01% | 4.94% |  | 1.07% | 7.52% |
| GA220: PCSK9 gRNA; protospacer GTGCTCAACTGCCAAGGGAA (SEQ ID NO: 214) (nucleic acid, sugars from the 5' end m3 r94 m3, linkages s3 o93 s3 (s phosphorothioate, o phosphodiester), T or U not given here) guide: GUGCUCAACUGCCAAGGGAAGUUUUAGAGCUAGAAAUAGCAAGUUAAAAUAAGGCUAGUCCGUUAUCAACUUGAAAAAGUGGCACCGAGUCGGUGCUUUU | 2.17% | 9.12% | 21.87% | 3.13% | 12.39% | 45.17% |
| GA221: PCSK9 gRNA; protospacer TCATGGCACCCACCTGGCAG (SEQ ID NO: 215) (nucleic acid, sugars from the 5' end m3 r94 m3, linkages s3 o93 s3 (s phosphorothioate, o phosphodiester), T or U not given here) guide: UCAUGGCACCCACCUGGCAGGUUUUAGAGCUAGAAAUAGCAAGUUAAAAUAAGGCUAGUCCGUUAUCAACUUGAAAAAGUGGCACCGAGUCGGUGCUUUU | 1.11% | 7.48% | 29.35% | 2.82% | 20.27% | 57.4% |
| GA213: PCSK9 gRNA; protospacer CGTGCTCAACTGCCAAGGGA (SEQ ID NO: 207) (nucleic acid, sugars from the 5' end m3 r94 m3, linkages s3 o93 s3 (s phosphorothioate, o phosphodiester), T or U not given here) guide: CGUGCUCAACUGCCAAGGGAGUUUUAGAGCUAGAAAUAGCAAGUUAAAAUAAGGCUAGUCCGUUAUCAACUUGAAAAAGUGGCACCGAGUCGGUGCUUUU | 2.17% | 8.77% | 24.28% | 2.73% | 16.35% | 45.22% |
| GA217: PCSK9 gRNA; protospacer GTGGTCAGCGGCCGGGATGC (SEQ ID NO: 211) (nucleic acid, sugars from the 5' end m3 r94 m3, linkages s3 o93 s3 (s phosphorothioate, o phosphodiester), T or U not given here) guide: GUGGUCAGCGGCCGGGAUGCGUUUUAGAGCUAGAAAUAGCAAGUUAAAAUAAGGCUAGUCCGUUAUCAACUUGAAAAAGUGGCACCGAGUCGGUGCUUUU | 0.77% | 2.75% | 15.31% | 2.6% | 10.2% | 39.21% |
| GA219: PCSK9 gRNA; protospacer GGCAGGGGTGGTCAGCGGCC (SEQ ID NO: 213) (nucleic acid, sugars from the 5' end m3 r94 m3, linkages s3 o93 s3 (s phosphorothioate, o phosphodiester), T or U not given here) guide: GGCAGGGGUGGUCAGCGGCCGUUUUAGAGCUAGAAAUAGCAAGUUAAAAUAAGGCUAGUCCGUUAUCAACUUGAAAAAGUGGCACCGAGUCGGUGCUUUU | 1.28% | 4.57% | 15.97% | 0.35% | 11.89% | 48.67% |
| GA212: PCSK9 gRNA; protospacer CGGGATGCCGGCGTGGCCAA (SEQ ID NO: 206) (nucleic acid, sugars from the 5' end m3 r94 m3, linkages s3 o93 s3 (s phosphorothioate, o phosphodiester), T or U not given here) guide: CGGGAUGCCGGCGUGGCCAAGUUUUAGAGCUAGAAAUAGCAAGUUAAAAUAAGGCUAGUCCGUUAUCAACUUGAAAAAGUGGCACCGAGUCGGUGCUUUU | 1.17% | 5.59% | 12.45% | 1.96% | 16.53% | 54.89% |
| GA211: PCSK9 gRNA; protospacer TGCGCGTGCTCAACTGCCAA (SEQ ID NO: 205) (nucleic acid, sugars from the 5' end m3 r94 m3, linkages s3 o93 s3 (s phosphorothioate, o phosphodiester), T or U not given here) guide: UGCGCGUGCUCAACUGCCAAGUUUUAGAGCUAGAAAUAGCAAGUUAAAAUAAGGCUAGUCCGUUAUCAACUUGAAAAAGUGGCACCGAGUCGGUGCUUUU | 1.31% | 10.29% | 38.07% | 1.01% | 8.3% | 28.63% |
| GA159: PCSK9 gRNA; protospacer GCGTTCCGAGGAGGACGGCC (SEQ ID NO: 153) (nucleic acid) guide: mG*mC*mG*rUrUrCrCrGrArGrGrArGrGrArCrGrGrCrCrGrUrUrUrUrArGrArGrCrUrArGrArArArUrArGrCrArArGrUrUrArArArArUrArArGrGrCrUrArGrUrCrCrGrUrUrArUrCrArArCrUrUrGrArArArArArGrUrGrGrCrArCrCrGrArGrUrCrGrGrUrGrCrU*mU*mU*mU | 1.35% | 3.74% | 14.68% | 1.19% | 3.69% | 12.21% |
| GA218: PCSK9 gRNA; protospacer CGCTGACCACCCCTGCCAGG (SEQ ID NO: 212) (nucleic acid, sugars from the 5' end m3 r94 m3, linkages s3 o93 s3 (s phosphorothioate, o phosphodiester), T or U not given here) guide: CGCUGACCACCCCUGCCAGGGUUUUAGAGCUAGAAAUAGCAAGUUAAAAUAAGGCUAGUCCGUUAUCAACUUGAAAAAGUGGCACCGAGUCGGUGCUUUU | 3.81% | 8.96% | 31.71% | 5.42% | 19.95% | 58.66% |
